Experiment [1] has as its target T1, recombinant soluble human IL-6 receptor (SR344) (human, UniProt P08887 20-344, biotinylated (sites not given) where immobilized via streptavidin or used in phage ELISA).
T1 construct: also called soluble IL-6 receptor; membrane-type IL-6 receptor (when biotinylated and immobilized on the chip)
T1 sequence (looked up): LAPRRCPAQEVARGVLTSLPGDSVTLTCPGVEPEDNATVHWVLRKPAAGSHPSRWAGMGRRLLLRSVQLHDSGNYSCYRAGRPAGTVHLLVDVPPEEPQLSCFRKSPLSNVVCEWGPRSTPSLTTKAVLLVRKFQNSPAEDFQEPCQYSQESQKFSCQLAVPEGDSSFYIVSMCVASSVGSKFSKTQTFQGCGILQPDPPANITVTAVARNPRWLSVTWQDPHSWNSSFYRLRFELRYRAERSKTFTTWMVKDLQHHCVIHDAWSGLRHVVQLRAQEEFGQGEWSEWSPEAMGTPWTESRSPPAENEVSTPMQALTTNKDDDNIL
The experiment in a line: SPR Biacore T100, antibody captured by anti-IgG gamma chain F(ab)2, SR344 analyte, pH 7.4, 37 C. As to the method:
Kinetic analyses of antigen-antibody reactions at pH 7.4 were carried out on the four types of antibodies, i.e., the humanized PM1 antibody (wild type: WT), and […], H3pI/L73-IgG1, Fv2-IgG1, and Fv4-IgG1 constructed in Examples 2 and 10, by using a Biacore T100™ surface plasmon resonance system (GE Healthcare) (buffer: 10 mM MES (pH 7.4), 150 mM NaCl, 0.05% TWEEN® 20 (polyoxyethelene sorbitan monolaurate)). Each antibody was bound on a sensor chip on which an anti-IgG γ chain specific F(ab)₂ (Pierce) was immobilized by amine coupling, and then, SR344 adjusted to a concentration of 9.8 to 40 nM was injected thereto as an analyte. The association to and dissociation from SR344 were observed on a real-time basis for the pH-dependent-binding clones. All the measurements were carried out at 37° C. Association rate constants kₐ (1/Ms) and dissociation rate constants kd (1/s) were calculated using Biacore T100™ Evaluation Software (GE Healthcare), and dissociation constants KD (M) were calculated on the basis of those values (Table 7).
Background: In SPR one partner is held on a chip, and binding of the other changes the refractive index at the surface.

Experiment [2] has as its target T1, recombinant soluble human IL-6 receptor …. The experiment in a line: SPR Biacore T100, biotinylated SR344 on streptavidin chip (model of membrane-type IL-6 receptor), antibody as analyte, 37 C. As for the experimental part:
(§1) Binding to the membrane-type IL-6 receptor was evaluated by evaluating binding to the IL-6 receptor immobilized on a sensor chip. SR344 was biotinylated in accordance with a method known among persons with ordinary skill in the art, and the biotinylated SR344 was immobilized on the sensor chip via streptavidin using the affinity between streptavidin and biotin. All the measurements were carried out at 37° C. The mobile phase buffer was 10 mM MES (pH 5.8), 150 mM NaCl and 0.05% TWEEN® 20 (polyoxyethelene sorbitan monolaurate).
(§2) The pH-dependently-binding clones were injected under the condition of pH 7.4 to allow them to bind to SR344, and then, the pH-dependent dissociation of each clone at the pH of the mobile phase, pH 5.8, was observed. The results are shown in FIG. 21 (results for Fv1-M71, Fv1-M73, Fv3-M71, and Fv3-M73 are shown in FIG. 21, while results for other clones are shown in FIGS. 17 and 19). Analyses were carried out in the same manner as in Example 10 and the pH dependencies of the dissociation rate constants of all of the eleven types of clones are shown in Table 12.

For experiment [3] the target is unchanged. Described as above. As for the experimental part: as §1, §2
This is another data set of the same source.

Experiment [4] has the same target. The experiment in a line: SPR Biacore T100, biotinylated SR344 on streptavidin chip (model of membrane-type IL-6 receptor), antibody as analyte, bound at pH 7.4, dissociation at pH 5.8, 37 C. As to the method:
as §1, §2

For experiment [5] the target is unchanged. The experiment in a line: SPR Biacore T100, antibody on protein A/G chip, SR344 analyte, 37 C. As for the experimental part:
(§3) Kinetic analyses of antigen-antibody reactions at pH 5.8 and pH 7.4 were carried out using a Biacore™ T100 surface plasmon resonance system (GE Healthcare) on the four antibodies: humanized PM1 antibody (WT) and H3pI/L73, CLH5/L73, and H170/L82 produced in Examples 2 and 4 (buffer: 10 mM MES (pH 7.4 or pH 5.8), 150 mM NaCl, and 0.05% TWEEN® 20 (polyoxyethelene sorbitan monolaurate)). Various antibodies were bound onto a sensor chip immobilized with recomb-protein A/G (Pierce) by amine coupling. SR344 adjusted to concentrations of 9.8 to 400 nM was injected to the chip as an analyte. […] All the measurements were carried out at 37° C. Association rate constants kₐ (1/Ms) and dissociation rate constants kd (1/s) were calculated using Biacore T100™ Evaluation Software (GE Healthcare), and dissociation constants KD (M) were calculated on the basis of those values (Table 5). Moreover, the ratio of the affinities at pH 5.8 and pH 7.4 were calculated for each clone to evaluate pH-dependent binding. All the measurements were carried out at 37° C.

Experiment [6] has the same target. The experiment in a line: SPR Biacore T100, antibody on protein A/G chip, SR344 analyte, pH 5.8, 37 C. As for the experimental part: as §3

Read-outs that look alike come from different tables or passages of the source.

By Kd is commonly meant the constant that tells how readily two partners part at equilibrium. As usually defined, the koff is the rate constant with which the complex falls apart. The kon is a measure of how fast the partners come together.

B1: Fv4-IgG1 (antibody)
heavy: not shown
light: DIQMTQSPSSLSASVGDSVTITCQASTDISSHLNWYQQKPGKAPELLIYYGSHLLSGVPSRFSGSGSGTDFTFTISSLEAEDAATYYCGQGNRLPYTFGQGTKVEIERTVAAPSVFIFPPSDEQLKSGTASVVCLLNNFYPREAKVQWKVDNALQSGNSQESVTEQDSKDSTYSLSSTLTLSKADYEKHKVYACEVTHQGLSSPVTKSFNRGEC
notes: VH3-IgG1 / VL3-CK
B1: the Kd in experiment [1] is 1.4 nM. The koff in experiment [1] turned out to be 0.001 s⁻¹; in experiment [4] it was 0.0026 s⁻¹. Moreover, the kon in experiment [1] came to 720000 M⁻¹ s⁻¹. Also, the “kd (pH 5.8)/kd (pH 7.4)” value in experiment [2] and in experiment [3] was 5.56 each time.

B2: H3pI/L73 (antibody, IgG1, V domains shown)
VH: QVQLQESGPGLVKPSETLSLTCAVSGHSISHDHAHSWVRQPPGEGLEWIGYISYSGITNYNPSLKGRVTISRDTSKNQFSLKLSSVTAADTAAYYCARSLARTTAMDYWGEGTLVTVSS
VL: DIQMTQSPSSLSASVGDSVTITCQASQHISSHLNWYQQKPGKAPELLIYYGSHLHSGVPSRFSGSGSGTDFTFTISSLEAEDAATYYCGQGNRLPYTFGQGTKVEIE
notes: tested as IgG1; also called H3pI/L73-IgG1; H3pl/L73
For B2, the “pH-dependent binding (affinity ratio) relative to WT” value in experiment [5] amounted to 15 fold. Also, in experiment [6], the Kd stood at 57 nM, the dissociation rate constant (koff) is 0.0097 s⁻¹ and the kon was 170000 M⁻¹ s⁻¹. Moreover, in experiment [1], the Kd is 1.4 nM, the koff came out at 0.00059 s⁻¹ and the kon came out at 410000 M⁻¹ s⁻¹. Moreover, in experiment [3], the “kd (pH 5.8)/kd (pH 7.4)” value is 2.59.

B3: H170/L82 (antibody, IgG1, V domains shown)
VH: QVQLQESGPGLVKPSETLSLTCAVSGHSISHHHAHSWVRQPPGEGLEWIGYISYSGITHYNPHLKGRVTISRDTSKNQFSLKLSSVTAADTAAYYCARVLARITAMDHWGEGTLVTVSS
VL: DIQMTQSPSSLSASVGDSVTITCQASQDISSHLNWYQQKPGKAPELLIYYGSHLHSGVPSRFSGSGSGTDFTFTISSLEAEDAATYYCGQGNRLPYTFGQGTKVEIE
notes: expressed and purified as IgG (IgG1); also called H170/L82-IgG1
For the molecule B3, the “pH-dependent binding (affinity ratio) relative to WT” value in experiment [5] is > 15 fold. In addition, in experiment [6], the Kd stood at 640 nM, the koff was found to be 0.017 s⁻¹ and the kon came to 26000 M⁻¹ s⁻¹.

B4: humanized PM1 antibody (wild type, WT) (antibody, human IgG1, kappa, V domains shown)
VH: QVQLQESGPGLVRPSQTLSLTCTVSGYSITSDHAWSWVRQPPGRGLEWIGYISYSGITTYNPSLKSRVTMLRDTSKNQFSLRLSSVTAADTAVYYCARSLARTTAMDYWGQGSLVTVSS
VL: DIQMTQSPSSLSASVGDRVTITCRASQDISSYLNWYQQKPGKAPKLLIYYTSRLHSGVPSRFSGSGSGTDFTFTISSLQPEDIATYYCQQGNTLPYTFGQGTKVEIKR
notes: IgG1; also called WT-IgG1; wild type humanized anti-IL-6 receptor antibody
On to B4, for which, in experiment [6], the Kd stood at 5 nM, the koff was found to be 0.0038 s⁻¹ and the kon was 760000 M⁻¹ s⁻¹. Besides, in experiment [1], the Kd worked out at 2.7 nM, the koff came to 0.0011 s⁻¹ and the kon was determined as 400000 M⁻¹ s⁻¹. For the same molecule, in experiment [3], the “kd (pH 5.8)/kd (pH 7.4)” value was 1.

The record behind these values is patent US20180282719A1 (published 2018).
